Experimental findings from patent publication US20240092889A1 (Chugai, published 2024) are described below.

The target in the experiment is T1, recombinant human C1r2s2 tetramer (human, UniProt P09871 16-688; P00736 18-705).
T1 construct: C1s and C1r co-expressed in HEK293/FreeStyle 293-F and purified from conditioned medium
T1 chain 1: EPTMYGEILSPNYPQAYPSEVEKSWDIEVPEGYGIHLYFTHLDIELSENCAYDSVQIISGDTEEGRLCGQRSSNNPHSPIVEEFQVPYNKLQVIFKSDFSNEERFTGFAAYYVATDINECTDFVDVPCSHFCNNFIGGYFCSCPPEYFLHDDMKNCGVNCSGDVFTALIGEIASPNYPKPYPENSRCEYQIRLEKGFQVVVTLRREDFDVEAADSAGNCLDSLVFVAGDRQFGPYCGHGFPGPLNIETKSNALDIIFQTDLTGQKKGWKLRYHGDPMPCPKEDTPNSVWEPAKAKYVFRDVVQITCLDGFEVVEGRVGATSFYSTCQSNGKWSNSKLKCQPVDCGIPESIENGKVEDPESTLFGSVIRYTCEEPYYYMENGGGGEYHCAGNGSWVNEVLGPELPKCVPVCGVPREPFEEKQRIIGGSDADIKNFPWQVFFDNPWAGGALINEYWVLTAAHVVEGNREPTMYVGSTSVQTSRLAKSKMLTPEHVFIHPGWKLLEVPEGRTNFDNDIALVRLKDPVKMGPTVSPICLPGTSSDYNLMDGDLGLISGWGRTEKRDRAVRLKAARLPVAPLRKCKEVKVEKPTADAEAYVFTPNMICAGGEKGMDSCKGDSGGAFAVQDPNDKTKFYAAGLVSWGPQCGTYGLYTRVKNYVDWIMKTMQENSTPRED
T1 chain 2: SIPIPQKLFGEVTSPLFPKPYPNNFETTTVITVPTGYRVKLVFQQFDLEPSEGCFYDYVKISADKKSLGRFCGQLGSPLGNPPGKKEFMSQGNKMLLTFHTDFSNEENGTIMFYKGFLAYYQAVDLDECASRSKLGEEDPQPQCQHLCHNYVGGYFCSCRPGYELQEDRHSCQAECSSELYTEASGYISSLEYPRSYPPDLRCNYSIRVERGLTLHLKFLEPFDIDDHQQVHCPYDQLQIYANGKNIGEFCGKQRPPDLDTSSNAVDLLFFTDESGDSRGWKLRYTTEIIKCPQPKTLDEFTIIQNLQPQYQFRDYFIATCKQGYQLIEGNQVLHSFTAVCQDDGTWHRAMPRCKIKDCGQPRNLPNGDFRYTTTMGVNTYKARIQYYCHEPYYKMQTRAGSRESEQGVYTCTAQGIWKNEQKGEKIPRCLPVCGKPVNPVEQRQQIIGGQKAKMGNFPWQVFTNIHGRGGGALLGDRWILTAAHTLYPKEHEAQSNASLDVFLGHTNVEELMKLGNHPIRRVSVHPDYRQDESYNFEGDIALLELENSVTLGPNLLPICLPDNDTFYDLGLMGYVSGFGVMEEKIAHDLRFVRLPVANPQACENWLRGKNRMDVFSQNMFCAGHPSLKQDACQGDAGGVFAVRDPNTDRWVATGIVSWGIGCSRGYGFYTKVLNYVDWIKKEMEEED
The experiment is described as follows: SPR (BIACORE), antibody captured by ProL, human C1r2s2 injected at 100 nM, pH 7.4, 37 C. As to the method:
Analysis of interaction between antibody variants and the human C1r2s2 prepared as mentioned above was carried out at pH7.4, at 37 degrees C. using BIACORE® T200 instrument (GE Healthcare) or BIACORE® 4000 (GE Healthcare). ProL (BioVision) was immobilized onto a CM4 sensorchip using amine coupling kit (GE Healthcare) according to the recommended settings by GE Healthcare. Antibodies and analytes were diluted into the respective running buffers, ACES pH7.4 (20 mM ACES (N-(2-Acetamido)-2-aminoethanesulfonic acid), 150 mM NaCl, 1.2 mM CaCl2, 1 mg/ml bovine serum albumin (BSA), 1 mg/ml CMD (CM-Dextran sodium salt), 0.05% Tween® 20 (polysorbate 20), 0.005 w/v % NaN3). Each antibody was captured onto the sensor surface by ProL. Antibody capture levels were aimed at 200 resonance units (RU). Then, recombinant human C1r2s2 was injected at concentrations of 25 and 100 nM followed by dissociation at pH7.4. The surface was regenerated using 10 mM Glycine-HCl, pH1.5.

B1: AL0551 (antibody, human IgG1, kappa, V domains shown)
VH: QVQLVESGGGVVQPGRSLRLSCAASGFTFSAYAMNWIRQPPGKGLEWIGLIYGSGSTFYASWAKGRVTISVDTSKNQFSLKLSSVTAADTAVYYCARGRSVNYNSDFHLWGQGTLVTVSS
VL: DIQMTQSPSSLSASVGDRVTITCQASQSLHDKKNLAWYQQKPGQPPKLLIYGASTLESGVPSRFSGSGSGTDFTLTISSLQPEDFATYYCQGEFSCSSADMNTFGQGTKVEIKR
notes: COS0637temp with VL C95dM (Kabat), already in the VL entry
Regarding B1, the binding result is “no binding (tested: 100 nM)”.

B2: AL0741 (antibody, human IgG1, kappa, V domains shown)
VH: QVQLVESGGGVVQPGRSLRLSCAASGFTFSAYAMNWIRQPPGKGLEWIGLIYGSGSTFYASWAKGRVTISVDTSKNQFSLKLSSVTAADTAVYYCARGRSVNYNSDFHLWGQGTLVTVSS
VL: DIQMTQSPSSLSASVGDRVTITCQASQSLHDKKNLAWYQQKPGQPPKLLIYGASTLESGVPSRFSGSGSGTDFTLTISSLQPEDFATYYCQGEFSWSSADQNTFGQGTKVEIKR
notes: COS0637temp with VL C94W/C95dQ (Kabat), already in the VL entry
B2: the binding result is “no binding (tested: 100 nM)”.

B3: AL0554 (antibody, human IgG1, kappa, V domains shown)
VH: QVQLVESGGGVVQPGRSLRLSCAASGFTFSAYAMNWIRQPPGKGLEWIGLIYGSGSTFYASWAKGRVTISVDTSKNQFSLKLSSVTAADTAVYYCARGRSVNYNSDFHLWGQGTLVTVSS
VL: DIQMTQSPSSLSASVGDRVTITCQASQSLHDKKNLAWYQQKPGQPPKLLIYGASTLESGVPSRFSGSGSGTDFTLTISSLQPEDFATYYCQGEFSCSSADQNTFGQGTKVEIKR
notes: COS0637temp with VL C95dQ (Kabat), already in the VL entry
Take B3: the binding result is “no binding (tested: 100 nM)”.

B4: AL0557 (antibody, human IgG1, kappa, V domains shown)
VH: QVQLVESGGGVVQPGRSLRLSCAASGFTFSAYAMNWIRQPPGKGLEWIGLIYGSGSTFYASWAKGRVTISVDTSKNQFSLKLSSVTAADTAVYYCARGRSVNYNSDFHLWGQGTLVTVSS
VL: DIQMTQSPSSLSASVGDRVTITCQASQSLHDKKNLAWYQQKPGQPPKLLIYGASTLESGVPSRFSGSGSGTDFTLTISSLQPEDFATYYCQGEFSCSSADTNTFGQGTKVEIKR
notes: COS0637temp with VL C95dT (Kabat), already in the VL entry
In the case of B4, the binding result is “no binding (tested: 100 nM)”.

B5: AL0560 (antibody, human IgG1, kappa, V domains shown)
VH: QVQLVESGGGVVQPGRSLRLSCAASGFTFSAYAMNWIRQPPGKGLEWIGLIYGSGSTFYASWAKGRVTISVDTSKNQFSLKLSSVTAADTAVYYCARGRSVNYNSDFHLWGQGTLVTVSS
VL: DIQMTQSPSSLSASVGDRVTITCQASQSLHDKKNLAWYQQKPGQPPKLLIYGASTLESGVPSRFSGSGSGTDFTLTISSLQPEDFATYYCQGEFSCSSADYNTFGQGTKVEIKR
notes: COS0637temp with VL C95dY (Kabat), already in the VL entry
On to B5, for which the binding result is “no binding (tested: 100 nM)”.

B6: AL0739 (antibody, human IgG1, kappa, V domains shown)
VH: QVQLVESGGGVVQPGRSLRLSCAASGFTFSAYAMNWIRQPPGKGLEWIGLIYGSGSTFYASWAKGRVTISVDTSKNQFSLKLSSVTAADTAVYYCARGRSVNYNSDFHLWGQGTLVTVSS
VL: DIQMTQSPSSLSASVGDRVTITCQASQSLHDKKNLAWYQQKPGQPPKLLIYGASTLESGVPSRFSGSGSGTDFTLTISSLQPEDFATYYCQGEFSVSSADLNTFGQGTKVEIKR
notes: COS0637temp with VL C94V/C95dL (Kabat), already in the VL entry
For the molecule B6, the binding result is “no binding (tested: 100 nM)”.

B7: AL0559 (antibody, human IgG1, kappa, V domains shown)
VH: QVQLVESGGGVVQPGRSLRLSCAASGFTFSAYAMNWIRQPPGKGLEWIGLIYGSGSTFYASWAKGRVTISVDTSKNQFSLKLSSVTAADTAVYYCARGRSVNYNSDFHLWGQGTLVTVSS
VL: DIQMTQSPSSLSASVGDRVTITCQASQSLHDKKNLAWYQQKPGQPPKLLIYGASTLESGVPSRFSGSGSGTDFTLTISSLQPEDFATYYCQGEFSCSSADWNTFGQGTKVEIKR
notes: COS0637temp with VL C95dW (Kabat), already in the VL entry
Regarding B7, the binding result is “no binding (tested: 100 nM)”.

B8: AL0736 (antibody, human IgG1, kappa, V domains shown)
VH: QVQLVESGGGVVQPGRSLRLSCAASGFTFSAYAMNWIRQPPGKGLEWIGLIYGSGSTFYASWAKGRVTISVDTSKNQFSLKLSSVTAADTAVYYCARGRSVNYNSDFHLWGQGTLVTVSS
VL: DIQMTQSPSSLSASVGDRVTITCQASQSLHDKKNLAWYQQKPGQPPKLLIYGASTLESGVPSRFSGSGSGTDFTLTISSLQPEDFATYYCQGEFSRSSADLNTFGQGTKVEIKR
notes: COS0637temp with VL C94R/C95dL (Kabat), already in the VL entry
Regarding B8, the binding result was “no binding (tested: 100 nM)”.

B9: AL0738 (antibody, human IgG1, kappa, V domains shown)
VH: QVQLVESGGGVVQPGRSLRLSCAASGFTFSAYAMNWIRQPPGKGLEWIGLIYGSGSTFYASWAKGRVTISVDTSKNQFSLKLSSVTAADTAVYYCARGRSVNYNSDFHLWGQGTLVTVSS
VL: DIQMTQSPSSLSASVGDRVTITCQASQSLHDKKNLAWYQQKPGQPPKLLIYGASTLESGVPSRFSGSGSGTDFTLTISSLQPEDFATYYCQGEFSLSSADLNTFGQGTKVEIKR
notes: COS0637temp with VL C94L/C95dL (Kabat), already in the VL entry
For the molecule B9, the binding result was “no binding (tested: 100 nM)”.

B10: AL0555 (antibody, human IgG1, kappa, V domains shown)
VH: QVQLVESGGGVVQPGRSLRLSCAASGFTFSAYAMNWIRQPPGKGLEWIGLIYGSGSTFYASWAKGRVTISVDTSKNQFSLKLSSVTAADTAVYYCARGRSVNYNSDFHLWGQGTLVTVSS
VL: DIQMTQSPSSLSASVGDRVTITCQASQSLHDKKNLAWYQQKPGQPPKLLIYGASTLESGVPSRFSGSGSGTDFTLTISSLQPEDFATYYCQGEFSCSSADRNTFGQGTKVEIKR
notes: COS0637temp with VL C95dR (Kabat), already in the VL entry
As to B10, the binding result is reported as “no binding (tested: 100 nM)”.

B11: AL0552 (antibody, human IgG1, kappa, V domains shown)
VH: QVQLVESGGGVVQPGRSLRLSCAASGFTFSAYAMNWIRQPPGKGLEWIGLIYGSGSTFYASWAKGRVTISVDTSKNQFSLKLSSVTAADTAVYYCARGRSVNYNSDFHLWGQGTLVTVSS
VL: DIQMTQSPSSLSASVGDRVTITCQASQSLHDKKNLAWYQQKPGQPPKLLIYGASTLESGVPSRFSGSGSGTDFTLTISSLQPEDFATYYCQGEFSCSSADNNTFGQGTKVEIKR
notes: COS0637temp with VL C95dN (Kabat), already in the VL entry
As to B11, the binding result is on record as “no binding (tested: 100 nM)”.

B12: AL0556 (antibody, human IgG1, kappa, V domains shown)
VH: QVQLVESGGGVVQPGRSLRLSCAASGFTFSAYAMNWIRQPPGKGLEWIGLIYGSGSTFYASWAKGRVTISVDTSKNQFSLKLSSVTAADTAVYYCARGRSVNYNSDFHLWGQGTLVTVSS
VL: DIQMTQSPSSLSASVGDRVTITCQASQSLHDKKNLAWYQQKPGQPPKLLIYGASTLESGVPSRFSGSGSGTDFTLTISSLQPEDFATYYCQGEFSCSSADSNTFGQGTKVEIKR
notes: COS0637temp with VL C95dS (Kabat), already in the VL entry
Turning to B12, the binding result is reported as “no binding (tested: 100 nM)”.

B13: AL0553 (antibody, human IgG1, kappa, V domains shown)
VH: QVQLVESGGGVVQPGRSLRLSCAASGFTFSAYAMNWIRQPPGKGLEWIGLIYGSGSTFYASWAKGRVTISVDTSKNQFSLKLSSVTAADTAVYYCARGRSVNYNSDFHLWGQGTLVTVSS
VL: DIQMTQSPSSLSASVGDRVTITCQASQSLHDKKNLAWYQQKPGQPPKLLIYGASTLESGVPSRFSGSGSGTDFTLTISSLQPEDFATYYCQGEFSCSSADPNTFGQGTKVEIKR
notes: COS0637temp with VL C95dP (Kabat), already in the VL entry
With B13, the binding result is recorded as “no binding (tested: 100 nM)”.

B14: AL0558 (antibody, human IgG1, kappa, V domains shown)
VH: QVQLVESGGGVVQPGRSLRLSCAASGFTFSAYAMNWIRQPPGKGLEWIGLIYGSGSTFYASWAKGRVTISVDTSKNQFSLKLSSVTAADTAVYYCARGRSVNYNSDFHLWGQGTLVTVSS
VL: DIQMTQSPSSLSASVGDRVTITCQASQSLHDKKNLAWYQQKPGQPPKLLIYGASTLESGVPSRFSGSGSGTDFTLTISSLQPEDFATYYCQGEFSCSSADVNTFGQGTKVEIKR
notes: COS0637temp with VL C95dV (Kabat), already in the VL entry
For B14, the binding result is given as “no binding (tested: 100 nM)”.
